Molecular target: EBOV VP35 WT oligomerization domain (Zaire ebolavirus, Yambuku-Mayinga) (UniProt Q05127)
Assay: SEC-MALS

Substance “EBOV VP35 WT oligomerization domain (from UniProt Q05127 75-185) (domain or fragment)” has a stoichiometry N of 4.

— publication doi:10.1101/726935
